# B1: Delta^MAX: engineered human DLL4 consensus variant with 10 mutations combining DLL4.v1 and DLL4.v2 mutations; sequence matches SEQ ID NO: 4/10 (protein)
# chain: SSVFQLQLQEFINERGVLASGRPCEPGCRTFFRVCLKHFQAVVSPGPCTFGTVSTPVLGTNSFAVRDDSSGGGRNPLQLPLNFTWPGTFSLIIEAWHAPGDDLRPEALPPDALISKFAIQGSLAVGQNWLLDEQTSTLTRLRYSYRVICSDNYYGDNCSRLCKKRNDYFGHYVCQPDGNPSCLPGWTGEYCQQPICLSGCHEQNGYCSKPAECLCRPGWQGRLCNECIPHPGCRHGTCSTPWQCLCDEGWGGLYCDQDLNYCTHHSPCKNGATCRNSGPRSYTCTCRPGYTGVDCELELSECDSNPCRNGGSCKDQEDGYHCLCPPGYYGLHCEHSTLSCADSPCFNGGSCRERNQGANYACECPPNFTGSNCE
# Experiments:
# [1] = system: full-length, cell surface-expressed Notch1; assay: Tetramer binding to Notch1 overexpressing CHO-K1 N1-Gal4 cells by flow cytometry; conditions: tetramers
# Source text: Extended Data FIG. 5. Quantitation of mNotch1 binding to DLL4 variants, ligand adsorption, and Notch surface expression. a, SPR binding isotherms were fitted to a 1:1 binding model to determine the binding affinity between mNotch1 (6-13) and each DLL4 variant. b, Determination of plate adsorption for WT DLL4 and Delta^MAX by ELISA. Data represent mean values±s.d. of three biological replicates. c, Binding assay of WT DLL4 and Delta^MAX tetramers to Notch1 overexpressing CHO-K1 N1-Gal4 cells was measured by flow cytometry. Data represent mean values±s.d. of three biological replicates. d, The level of Notch1 expression on the surface of cell lines used in this study was determined by flow cytometry. Data represent mean values±s.d. of three biological replicates. e, Percentage of CD8^+ T cells expressing Notch1 (upper graph) and Notch2 (bottom graph) on cell surface determined by flow cytometry after stimulation with K32-WT DLL4, K32-Delta^MAX, or K32 for 96 hours. Data represent mean values±s.e.m. of three biological replicates. Delta^MAX statistics are referred to WT DLL4. *P<0.05, ****P<0.0001 (Two-way ANOVA).
# Notch2 = assay: U2OS luciferase reporter assay, ligands on streptavidin plates; format: cell-based, human; conditions: 50 nM immobilized
# Procedure: (§1) For U2OS reporter cells, approximately 5×10E5 cells were plated into 6-well plates (Falcon) and let to adhere overnight at 37° C., 5% CO2 in DMEM media (Cytiva). On day two, media was replaced with serum-free DMEM and cells transfected with luciferase vectors. Cationic lipoplexes were generated for 15 min at room temperature by mixing 10 μL of Lipofectamine 2000 (Invitrogen), 2.5 μg of Gal4-firefly luciferase reporter, and 50 ng of pRL-TK Renilla luciferase vector as internal control (ratio 1:5, Lipo:DNA). On day three, streptavidin plates were coupled with DLL4 ligands like described above using 10-fold serial dilutions starting at 50 nM, and transfected U2OS cells were detached with Trypsin-EDTA, washed with DPBS, and counted in the microscope. Twenty-thousand reporter cells were added to wells using 200 μL of DMEM media containing 2 μg/mL of doxycycline (Sigma) to induce Notch-Gal4 expression. Next, signaling plates were incubated for 24 hours at 37° C. and 5% CO2. On day four, luciferase firefly and Renilla signals were determined with Dual-Glo luciferase assay system (Promega) using a GloMax luminometer (Promega). A luminescence ratio firefly:Renilla was determined for every well and normalized to the signal of a non-related control protein (PA domain of RNF128). Notch activation is represented as the mean fold-change over the control±s.d. of three independent biological replicates.
# Notch3 = assay: as above; format: cell-based, human; conditions: 50 nM immobilized
# Procedure: as §1
# Notch1 = assay: as above; format: cell-based, human; conditions: 50 nM immobilized
# Procedure: as §1
# CD8+ T cells = assay: Quantitative real-time PCR of activation markers in CD8+ T cells; format: cell-based, human; conditions: K32 loaded with 0.0125 μg/mL OKT3, over four days
# Procedure: Human CD8^+ T cells were co-cultured with K32-DLL4 cells for 96 hours and positively enriched by MACS column (Invitrogen Kit). Total RNA was isolated from CD8^+ T cells using TRIzol (Life Technologies). Reverse transcription reaction was performed using Verso cDNA Synthesis Kit (Thermo Scientific). Quantitative PCR reactions were prepared by using Bio-Rad SYBR green master mix and performed on an Applied Biosystems thermocycler (7900 HT). Relative expression was calculated using the ΔΔCt method and normalized to B2M levels. The data represent the mean quantity of mRNA (in-fold) for different T cell markers±s.e.m. of four independent biological replicates. Pair primers used were: […]
# Sequence of Notch2 (Q04721 221-530 limits assumed): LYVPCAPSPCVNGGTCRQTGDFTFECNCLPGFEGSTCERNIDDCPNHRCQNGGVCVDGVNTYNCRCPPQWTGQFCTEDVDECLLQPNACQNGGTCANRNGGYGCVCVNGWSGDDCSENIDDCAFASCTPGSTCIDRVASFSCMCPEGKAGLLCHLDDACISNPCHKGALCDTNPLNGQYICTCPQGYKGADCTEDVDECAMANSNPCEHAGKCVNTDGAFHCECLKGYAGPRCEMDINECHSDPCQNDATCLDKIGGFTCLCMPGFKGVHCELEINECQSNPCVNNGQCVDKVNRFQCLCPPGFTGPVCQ
# Sequence of Notch3 (Q9UM47 197-505 limits assumed): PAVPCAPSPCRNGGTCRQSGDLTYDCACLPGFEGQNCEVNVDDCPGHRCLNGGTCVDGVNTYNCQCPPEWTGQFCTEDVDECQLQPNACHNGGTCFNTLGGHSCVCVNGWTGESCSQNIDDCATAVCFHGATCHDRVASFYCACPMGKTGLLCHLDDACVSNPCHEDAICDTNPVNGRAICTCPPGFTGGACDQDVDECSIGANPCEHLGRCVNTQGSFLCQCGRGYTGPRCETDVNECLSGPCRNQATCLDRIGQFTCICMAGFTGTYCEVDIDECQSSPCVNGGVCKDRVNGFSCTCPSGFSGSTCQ
# Sequence of Notch1 (P46531 19-1664 limits assumed): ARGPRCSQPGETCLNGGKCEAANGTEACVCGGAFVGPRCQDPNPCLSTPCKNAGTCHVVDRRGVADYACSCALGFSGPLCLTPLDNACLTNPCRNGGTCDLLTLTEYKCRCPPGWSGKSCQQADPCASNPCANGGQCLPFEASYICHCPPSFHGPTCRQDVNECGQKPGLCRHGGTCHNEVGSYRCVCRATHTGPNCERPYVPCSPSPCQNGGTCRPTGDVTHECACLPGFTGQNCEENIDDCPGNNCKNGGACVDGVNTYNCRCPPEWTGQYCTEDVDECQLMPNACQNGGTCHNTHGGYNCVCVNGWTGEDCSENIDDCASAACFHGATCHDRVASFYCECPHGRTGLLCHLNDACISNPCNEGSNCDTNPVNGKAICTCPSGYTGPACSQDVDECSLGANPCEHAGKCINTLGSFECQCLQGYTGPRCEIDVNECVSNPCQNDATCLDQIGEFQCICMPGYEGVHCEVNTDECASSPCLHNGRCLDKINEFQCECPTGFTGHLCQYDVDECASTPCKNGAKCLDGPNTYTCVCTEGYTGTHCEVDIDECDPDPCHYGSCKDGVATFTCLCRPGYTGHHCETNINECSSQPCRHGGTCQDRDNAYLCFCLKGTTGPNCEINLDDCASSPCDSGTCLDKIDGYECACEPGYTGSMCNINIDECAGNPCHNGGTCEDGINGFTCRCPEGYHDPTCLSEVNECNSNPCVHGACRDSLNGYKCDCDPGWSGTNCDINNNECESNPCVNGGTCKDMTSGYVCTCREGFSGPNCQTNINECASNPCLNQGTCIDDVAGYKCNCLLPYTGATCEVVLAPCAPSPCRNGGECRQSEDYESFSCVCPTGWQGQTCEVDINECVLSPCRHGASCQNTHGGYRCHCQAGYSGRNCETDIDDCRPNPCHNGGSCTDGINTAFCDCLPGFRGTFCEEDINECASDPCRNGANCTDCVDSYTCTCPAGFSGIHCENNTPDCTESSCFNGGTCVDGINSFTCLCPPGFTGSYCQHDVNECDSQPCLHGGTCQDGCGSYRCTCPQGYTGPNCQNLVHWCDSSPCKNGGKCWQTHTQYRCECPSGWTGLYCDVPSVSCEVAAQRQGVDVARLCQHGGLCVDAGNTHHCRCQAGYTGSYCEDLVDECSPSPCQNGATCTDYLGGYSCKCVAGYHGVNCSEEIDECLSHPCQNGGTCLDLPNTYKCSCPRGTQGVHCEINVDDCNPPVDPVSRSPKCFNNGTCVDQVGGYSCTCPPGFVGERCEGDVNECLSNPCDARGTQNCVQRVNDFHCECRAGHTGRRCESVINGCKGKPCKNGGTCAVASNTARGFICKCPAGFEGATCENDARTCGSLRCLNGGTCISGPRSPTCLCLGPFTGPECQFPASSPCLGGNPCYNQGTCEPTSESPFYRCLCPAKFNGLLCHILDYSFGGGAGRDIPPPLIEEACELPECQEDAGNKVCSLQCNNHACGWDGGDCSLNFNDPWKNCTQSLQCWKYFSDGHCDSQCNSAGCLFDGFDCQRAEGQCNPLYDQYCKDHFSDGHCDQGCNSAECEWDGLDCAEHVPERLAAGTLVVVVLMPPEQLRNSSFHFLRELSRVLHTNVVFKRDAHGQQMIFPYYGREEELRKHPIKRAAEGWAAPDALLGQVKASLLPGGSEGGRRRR
# Sequence of Notch1 (P46531 1665-1756 limits assumed): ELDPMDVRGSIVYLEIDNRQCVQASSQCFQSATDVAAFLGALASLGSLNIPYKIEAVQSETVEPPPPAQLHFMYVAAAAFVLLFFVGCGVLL
# Sequence of full-length, cell surface-expressed Notch1 (P46531 19-1664 limits assumed): as the sequence (P46531 19-1664 limits assumed) above
# Sequence of full-length, cell surface-expressed Notch1 (P46531 1665-1756 limits assumed): as the sequence (P46531 1665-1756 limits assumed) above
molecule,measurement,setting,value
B1,increase of mean fluorescence intensity (MFI) of binding compared to WT DLL4,[1],4.7 fold
same,increase in Notch2 signaling vs WT DLL4,Notch2,2.5 fold
same,increase in Notch3 signaling vs WT DLL4,Notch3,3 fold
same,increase in Notch1 signaling vs WT DLL4,Notch1,2 fold
same,Granzyme B mRNA level vs WT DLL4 or mock,CD8+ T cells,increased levels
same,Hes-4 (Notch target) expression vs WT DLL4 or mock,CD8+ T cells,elevated expression
same,IFNγ mRNA level vs WT DLL4 or mock,CD8+ T cells,increased levels

# From patent publication US20260055369A1, “METHOD FOR GENERATING CELLS OF THE T CELL LINEAGE WITH ENGINEERING BROADLY REACTIVE HUMAN NOTCH LIGAND” (H. Lee Moffitt Cancer Center and Research Institute, Inc., priority 2022, published 2026)
